Test results published in US11667688B2, “Glucagon derivative and a composition comprising a long acting conjugate of the same” (HANMI PHARM. CO., LTD., priority 2015, dated 2023).
Bridge positions count the residues as written; N and C are the ends. Square brackets hold non-standard residues; d marks the D form. Ends that are not written are not given here. Aib = CC(C)(N)C(=O)O

How the values were obtained:
[1] = when taken for one year; cited from earlier work
human glucagon receptors = target: T1, human glucagon receptors (Homo sapiens, UniProt P47871); experiment: cAMP activity of glucagon derivatives in CHO cell line transfected with human glucagon receptor (LANCE cAMP kit); format: cell-based; conditions: cAMP EC50 compared with that of native glucagon; CHO cells with human glucagon receptor
T1 construct: a region corresponding to Open Reading Frame (ORF) in the cDNA; expressed in transfected cells
T1 sequence (P47871 26-477): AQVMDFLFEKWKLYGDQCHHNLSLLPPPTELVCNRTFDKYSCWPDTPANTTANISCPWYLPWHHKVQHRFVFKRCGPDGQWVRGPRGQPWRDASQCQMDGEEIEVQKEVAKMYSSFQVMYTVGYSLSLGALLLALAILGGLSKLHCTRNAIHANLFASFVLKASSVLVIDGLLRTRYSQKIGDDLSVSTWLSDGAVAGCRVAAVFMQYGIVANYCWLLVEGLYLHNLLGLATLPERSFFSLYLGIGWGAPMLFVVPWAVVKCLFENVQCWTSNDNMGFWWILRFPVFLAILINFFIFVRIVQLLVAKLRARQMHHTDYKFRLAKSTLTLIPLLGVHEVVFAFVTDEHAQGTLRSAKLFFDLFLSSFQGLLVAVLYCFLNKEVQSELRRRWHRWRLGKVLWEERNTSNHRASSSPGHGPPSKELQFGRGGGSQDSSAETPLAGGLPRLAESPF
Protocol: PCR was performed using a region corresponding to Open Reading Frame (ORF) in the cDNA (OriGene Technologies, Inc., USA) of human glucagon receptor gene as a template along with the following forward and reverse primers (SEQ ID NOS: 47 and 48, respectively), which include each of the EcoRI and XhoI restriction sites.
The PCR product was cloned into a known animal cell expression vector, x0GC/dhfr, to prepare a recombinant vector x0GC/GCGR.
CHO DG44 cell line cultured in DMEM/F12 (10% FBS) medium was transfected with the recombinant vector x0GC/GCGR using LIPOFECTAMINE®, and cultured in a selection medium containing G418 (1 mg/mL) and methotraxate (10 nM).
Specifically, the transfected cell line was subcultured 3 to 4 times a week, aliquoted into a 384-well plate in an amount of 6×10^3 cell lines/well, and cultured for 24 hours. Native glucagon and glucagon derivatives were suspended in Hank's balanced salt solution (HBSS) buffer containing 0.5 mM of 3-isobutyl-1-methylxanthine (IBMX), 0.1% bovine serum albumin (BSA), and 5 mM 4-(2-hydroxyethyl)-1-piperazineethanesulfonic acid (HEPES) with the culture cells, at concentrations of 200 nM and 1600 nM, respectively, continuously subjected into a 4-fold dilution 10 times, applied to a cAMP assay kit (LANCE cAMP 384 kit, PerkinElmer), and added to the cultured cells, and their fluorescence value was measured.

Compound	weight loss [1]	In vitro Activity (Relative Activity of SEQ ID NO: 1, %) (human glucagon receptors) [%]
CCCCCCCCCCC[C@@H](C[C@@H]1OC(=O)[C@H]1CCCCCC)OC(=O)[C@H](CC(C)C)NC=O [ORLISTAT]	about 4 kg	–
WXQGTFTSDYSKYCDERRAKEFVQWLMNT (W[Aib]QGTFTSDYSKYCDERRAKEFVQWLMNT; bridge 16-20) [SEQ ID NO: 34, glucagon derivative, X = Aib]	–	0.2
HSQGTFTSDYSKYLDCDRAQDFVQWLMNT (glucagon derivative) [SEQ ID NO: 2]	–	0.6
YXQGTFTSDYSKYLDCRRAQVFVQWLMRT (Y[Aib]QGTFTSDYSKYLDCRRAQVFVQWLMRT) [SEQ ID NO: 16, glucagon derivative, X = Aib]	–	4.2
